In general, EC50 refers to the midpoint of the concentration-response curve. A word on the IC50: it is the point on the concentration scale where inhibition reaches its midpoint. Broadly, the Kd is the constant that tells how readily two partners part at equilibrium. What is called koff is the rate constant with which the complex falls apart. A word on the kon: it is a measure of how fast the partners come together.

Here are results for five molecules from patent US20220064294A1 (ARCUS BIOSCIENCES, published 2022).

T1: human TIGIT, full length, on cells (human, UniProt Q495A1 22-244)
T1 construct: also called hTIGIT; hTIGIT-CHO
T1 sequence: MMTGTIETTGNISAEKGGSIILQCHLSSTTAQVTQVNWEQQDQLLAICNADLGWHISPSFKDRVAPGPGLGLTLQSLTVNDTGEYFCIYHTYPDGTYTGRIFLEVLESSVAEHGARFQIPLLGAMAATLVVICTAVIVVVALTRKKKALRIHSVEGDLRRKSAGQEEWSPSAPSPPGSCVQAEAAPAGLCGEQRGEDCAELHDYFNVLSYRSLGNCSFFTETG

T2: soluble His-tagged TIGIT (Acro Biosystems, Cat #No. TIT-H52H3) (human, UniProt Q495A1 22-141)
T2 construct: Bought protein; also called His-tagged human TIGIT
T2 sequence (looked up): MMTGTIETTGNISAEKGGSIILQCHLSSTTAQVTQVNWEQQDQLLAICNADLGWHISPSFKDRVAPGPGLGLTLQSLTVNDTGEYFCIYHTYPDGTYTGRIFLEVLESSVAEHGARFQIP

B1: Ch21B9 (antibody, human IgG1, V domains shown)
VH: EVQLVESGGGLVKPGGSLKLSCTASGFTFSSYAMSWVRQSPEKRLEWVAEISSGGSYTYYTDTVTGRFTISRDNAKNTLYLEMSSLRSEDTAMYYCARKRRDYYGMDYWGQGTSVTVSS
VL: DVQITQSPSYLAASPGETITINCRASKSISKYLAWYQEKPGKTNKLLIYSGSTLQTGIPSRFSGSGSGTDFTLTISSLEPEDFAMYYCQQHNEYPWTFGGGTKLEIK
notes: also called recombinant anti-TIGIT mouse/human chimera antibody 21B9
B2: Ch22B22 (antibody, human IgG1, V domains shown)
VH: B1 VH with T23A, T61P, G105A
VL: B1 VL with T56S
notes: Expressed in HEK293, purified on Protein A; also called recombinant anti-TIGIT mouse/human chimera antibody 22B22
B3: Ch21B16 (antibody, human IgG1, V domains shown)
VH: B1 VH with T23A, S31T, S56T, Y60F, T61P, G105A
VL: B1 VL with T56S, M85V
notes: also called recombinant anti-TIGIT mouse/human chimera antibody 21B16
B4: Ch28O12 (antibody, human IgG1, V domains shown)
VH: B1 VH with T23A, S31N, S53G, Y60H, T61P, G105A
VL: B1 VL with T56S
notes: also called recombinant anti-TIGIT mouse/human chimera antibody 28O12
B5: Ch5J24 (antibody, human IgG1, V domains shown)
VH: QVQLQQSGAELVRPGTSVKMSCKAAGYTFTNHWIGWVKQRPGHGLEWIGDIYPGGGYTNYNEKFKGKATLTADTSSSTAYMYLSSLTSEDSAIYYCARSYGYDLYAMDYWGQGTSVTVSS
VL: DIQMTQSPSSLSASLGERVSLTCRASQEISGYLSWLQQKPDGTIKRLIYAASTLGSGVPKRFSGSRSGSDYSLTISSLESEDFADYYCLQYDSYPFTFGAGTKLELK
notes: also called recombinant anti-TIGIT mouse/human chimera antibody 5J24

Where a chain is given by its changes, count along the chain named.

In one assay the target is T3, cynomolgus monkey TIGIT, full length, on cells (cynomolgus monkey).
T3 construct: Whole entry of 312 amino acids; also called cyno TIGIT; cTIGIT
Put plainly: flow cytometry on cTIGIT-CHO cells. On the procedure: (§1) These clones were further expanded, and antibodies were purified using a Protein G column. These purified antibodies were tested for binding to human and cyno TIGIT expressed on cell surface by flow cytometry. Stable CHO-K1 cell lines expressing full length human TIGIT clone 2A7 (Swiss-Prot Q495A1; SEQ ID NO: 80) or full length cyno TIGIT clone C10 (Swiss-Prot A0A2K5UW92; SEQ ID NO: 84) were developed. For the flow assay, cells were collected and incubated in 100 μL of HBSS buffer in the presence (or absence) of various concentrations of antibodies for 1 hr at 4° C. After washing with HBSS, antibody binding on cells was detected with 2 μg/mL of Alexa488-labeled goat anti-mouse IgG antibody (ThermoFisher Scientific, Cat #A-11001) for 30 min at 4° C. Cells were then washed and resuspended in PBS and subjected to flow cytometry using an Attune NxT flow cytometer (ThermoFisher Scientific, Waltham, Mass.). The geometric mean of the fluorescence intensity was obtained for the whole single cell population. Antibodies capable of binding to both human and cyno TIGIT expressed on cell surface were further tested for their blocking activity against recombinant human CD155 binding to human TIGIT on the surface of CHO cells. CHO-hTIGIT cells (10⁵ cells) were incubated with 2.5 μg/mL hCD155-Fc protein in the presence of various concentrations of antibody at room temperature for 1 hr. […] Cells were then washed and subjected to flow cytometry analysis.
(§2) The binding capability of these chimera anti-TIGIT antibodies to cell surface overexpressed human and cyno TIGIT was confirmed utilizing the flow cytometry assay previously described. After incubation of chimera anti-TIGIT antibody with hTIGIT-CHO or cTIGIT-CHO, bound antibody was detected using Alexa488 conjugated goat anti-human IgG antibody (ThermoFisher Scientific, Cat #A-11013). Antibody functional activity in inhibiting recombinant hCD155-hFc binding to hTIGIT-CHO-K1 cells was also determined using flow assay as previously described.
As for B1, the response was half-maximal at 0.18 nM (EC50).
Still for that read-out and setting: the result for B2 reads 0.24 nM; that for B3, 0.42 nM; that for B4, 0.358 nM.
Still for that read-out and setting: the result for B5 reads 0.212 nM.

The target in the next assay is T1, human TIGIT, full length, on cells. Put plainly: flow cytometry, endogenous TIGIT on isolated human CD4+ T cells. On the procedure:
(§3) The ability of chimera anti-TIGIT antibodies to bind to endogenously expressed TIGIT on isolated human CD4⁺ and CD8⁺ cells was tested using a flow cytometry assay. Human CD4⁺ or CD8⁺ T cells were isolated from human whole blood using RosetteSep™ Human CD4⁺ T cell Enrichment Cocktail (Stemcell, Cat #15022) or Human CD8⁺ T cell enrichment Cocktail (Stemcell, […]), respectively. […] However, differences in max binding activity (MFImax) was observed between clones.
(In flow cytometry, cells or beads pass a laser one at a time.)
Turning to B1, the “CD4+ MFImax” value is 150 MFI and it took 0.029 nM to reach a half-maximal effect (EC50).
Take B2: the “CD4+ MFImax” value turned out to be 140 MFI and the response was half-maximal at 0.097 nM (EC50).
The like results for B3 were, in that order, 180 MFI and 0.119 nM.
For B4, in that order: 190 MFI and 0.141 nM.
The like results for B5 were, in that order, 125 MFI and 0.073 nM.

For a further assay the target is unchanged. Kind of assay: flow cytometry, inhibition of hCD155-hFc binding to hTIGIT-CHO-K1 cells. The protocol: as §1, §2
As for B1, the IC50 amounted to 0.8 nM.
Molecule B2 came in with an IC50 of 1.16 nM.
B3 had an IC50 of 0.2 nM.
B4 came in with an IC50 of 0.48 nM.
Same read-out and setting: the result for B5 reads 0.7 nM.

Another assay has as its target T2, soluble His-tagged TIGIT (Acro …). Kind of assay: SPR, ProteOn XPR36, antibody on Protein A chip, soluble His-tagged TIGIT as analyte, 25 C. On the procedure:
The kinetic binding of these recombinant anti-TIGIT antibodies to human TIGIT was determined by surface plasmon resonance (SPR) using a Bio-Rad ProteOn XPR36 instrument. Recombinant antibodies were immobilized using a Protein A coated GLC sensor chip, and soluble His-tagged TIGIT (Acro Biosystems, Cat #No. TIT-H52H3) was used as the analyte. The binding constants were determined at 25° C.
(In general: Surface plasmon resonance follows binding to a sensor surface in real time, without labels.)
The molecule B1 yielded a Kd of 7.1 nM, a koff of 0.074 s⁻¹ and a kon of 1.05e+07 M⁻¹ s⁻¹.
Molecule B2 yielded an equilibrium dissociation constant (Kd) of 9.78 nM, a koff of 0.0141 s⁻¹ and a kon of 1.44e+06 M⁻¹ s⁻¹.
Regarding B3, the Kd worked out at 6.3 nM, the koff stood at 0.00929 s⁻¹ and the kon was determined as 1.47e+06 M⁻¹ s⁻¹.
Turning to B4, binding was characterised by a dissociation constant (Kd) of 0.904 nM, the koff is 0.00113 s⁻¹ and the kon is 1.26e+06 M⁻¹ s⁻¹.
For B5, in that order: 3.85 nM, 0.0214 s⁻¹ and 5.57e+06 M⁻¹ s⁻¹.

For another assay, the target named is T1, human TIGIT, full length, on cells. Kind of assay: flow cytometry, endogenous TIGIT on isolated human CD8+ T cells. On the procedure:
as §3
With B1, the “CD8+ MFImax” value was found to be 4500 MFI and the EC50 was determined as 0.062 nM.
Turning to B2, the “CD8+ MFImax” value was 5000 MFI and a half-maximal response (EC50) required 0.175 nM.
Take B3: the “CD8+ MFImax” value stood at 5200 MFI and the EC50 is 0.16 nM.
Regarding B4, the “CD8+ MFImax” value was 7200 MFI and the EC50 is 0.249 nM.
The like results for B5 were, in that order, 4500 MFI and 0.117 nM.

The next assay shares this target. Put plainly: flow cytometry on hTIGIT-CHO cells. On the procedure:
as §1, §2
As to B1, the midpoint of the response, the EC50, lay at 0.102 nM.
For B2, a half-maximal response (EC50) required 0.16 nM.
With B3, the EC50 was found to be 0.12 nM.
As to B4, the response was half-maximal at 0.159 nM (EC50).
Take B5: the EC50 was determined as 0.131 nM.
